Measurements from the RNAGym collection of RNA variant scans (doi:10.7554/elife.80360).

B1: CPEB3 Ribozyme (parent)
chain: GGGGGCCACAGCAGAAGCGUUCACGUCGCGGCCCCUGUCAGAUUCUGGUGAAUCUGCGAAUUCUGCUGU

Variants of: B1
Assay: self-cleavage, relative activity (ratio to wild type); higher = more cleavage; co-transcriptional

First: A10G C66A
Second: C12A G19U
The self-cleavage of the first is higher: 0.385 for the first, 0.111 for the second.

Going from C12A G19A to A10U U62A, the self-cleavage rises from 0.142 to 0.882.

Compared with A10U U62C, G11U G30U is lower in self-cleavage: 0.757 for the first, 0.263 for the second.

Going from G11C G41C to G11C G41U, the self-cleavage falls from 0.257 to 0.238.

First: A10U A13G
Second: A10U A13U
The self-cleavage of the first is lower: 0.56 for the first, 0.701 for the second.

Compared with A10U G31U, A10U G31A is higher in self-cleavage: 0.895 for the first, 0.976 for the second.

Compared with G11U C45G, C12A U26A is lower in self-cleavage: 0.772 for the first, 0.374 for the second.

First: C12A U26G
Second: A10G U26G
The self-cleavage of the first is lower: 0.447 for the first, 0.877 for the second.

Going from A10G U26A to A10G U26C, the self-cleavage falls from 0.933 to 0.351.

Compared with G11C G31C, G11C G31U is higher in self-cleavage: 0.167 for the first, 0.536 for the second.

First: G11A C63U
Second: A10U C34U
The self-cleavage of the first is lower: 0.707 for the first, 0.985 for the second.

Compared with G11U A15C, G11U A15G is higher in self-cleavage: 0.531 for the first, 0.779 for the second.

Going from G11A C12U to G11U C24A, the self-cleavage falls from 0.549 to 0.308.

First: C12A C29A
Second: A10G G25A
The self-cleavage of the first is higher: 0.121 for the first, 0.0673 for the second.

Compared with A10G G25U, C12A G30C is higher in self-cleavage: 0.132 for the first, 0.194 for the second.

Compared with G11C G30U, G11U G25C is lower in self-cleavage: 0.225 for the first, 0.0857 for the second.

Compared with G11C U69G, G11C U69A is lower in self-cleavage: 0.97 for the first, 0.921 for the second.

Going from G11C U69C to A10G G30U, the self-cleavage falls from 1.01 to 0.704.

First: A10G G30A
Second: G11A U62G
The self-cleavage of the first is higher: 0.96 for the first, 0.331 for the second.

Going from G11U C63A to G11A U67A, the self-cleavage rises from 0.418 to 0.934.

Compared with A10U G28C, A10U G28A is higher in self-cleavage: 0.137 for the first, 0.139 for the second.

Going from A10U G28U to G11C C54A, the self-cleavage rises from 0.14 to 0.252.

Compared with A10U U26G, C12A U36A is lower in self-cleavage: 0.994 for the first, 0.194 for the second.

Compared with C12A U36G, G11U U36A is higher in self-cleavage: 0.154 for the first, 0.164 for the second.

First: G11C U64G
Second: A10G G65U
The self-cleavage of the first is higher: 0.435 for the first, 0.303 for the second.

First: A10G G65A
Second: G11U A40U
The self-cleavage of the first is higher: 0.337 for the first, 0.256 for the second.

Compared with A10U C22A, G11U C33U is higher in self-cleavage: 0.208 for the first, 0.948 for the second.

Going from G11A U49C to C12A A60C, the self-cleavage falls from 0.903 to 0.264.

First: A10U U36G
Second: A10U U36C
The self-cleavage of the first is lower: 0.195 for the first, 0.924 for the second.

Going from A10G G37A to A10G G37U, the self-cleavage falls from 0.219 to 0.11.

Going from G11C G50C to A10U A60G, the self-cleavage rises from 0.748 to 0.953.

Compared with G11C G58U, G11C G58C is lower in self-cleavage: 0.896 for the first, 0.751 for the second.

First: G11U C34A
Second: A10G G41A
The self-cleavage of the first is higher: 0.694 for the first, 0.37 for the second.

Compared with A10G G41C, A10G U62C is higher in self-cleavage: 0.326 for the first, 0.376 for the second.

First: G11A A15C
Second: A10U U53C
The self-cleavage of the first is lower: 0.849 for the first, 0.871 for the second.

First: G11A G19A
Second: A10U U46C
The self-cleavage of the first is lower: 0.103 for the first, 0.983 for the second.

First: A10U U46A
Second: G11C U49C
The self-cleavage of the first is higher: 0.954 for the first, 0.803 for the second.

First: G11C U49G
Second: G11C U44C
The self-cleavage of the first is higher: 0.866 for the first, 0.459 for the second.

Compared with G11C U44G, A10U C27A is lower in self-cleavage: 0.662 for the first, 0.272 for the second.

Going from A10U C27U to G11A G14U, the self-cleavage falls from 0.547 to 0.126.

First: G11C C35A
Second: G11C C35U
The self-cleavage of the first is lower: 0.205 for the first, 0.758 for the second.

Work on G11U U64C yielded a self-cleavage of 0.498.
